Source: the DeepSol protein solubility set

Experiment: soluble on expression in E. coli; label from the status in PepcDB or PDB records

Sequence	soluble on expression in E. coli
MAHHTKETMELIKELVSIPSPSGNTAKIINFIENYVSEWNVETKRNNKGALILTVKGKNDAQHRLLTAHVDTLGAMVKEIKPDGRLSLSMIGGFRWNSVEGEYCEIETSSGKTYTGTILMHQTSVHVYKDAGEAKRDEKNIEVRIDERVFSADEVRELGIEVGDFVSFDPRVQITESGYIKSRHLDDKVSVAILLKLIKRLQDENVTLPYTTHFLISNNEEIGYGGNSNIPEETVEYLAVDMGALGDGQASDEYTVSICAKDSSGPYHYALRKHLVELAKTNHIEYKVDIYPYYGSDASAAIRAGFDVKHALIGAGIDSSHAFERTHESSIAHTEALVYAYVMSNLIEE	soluble
MAHLSYWFKQALELEQPQPAKPLNEDIAADVAIIGGGYTGLWTAIMIKQQAPKKHVVVIEKGLCGSGASGANGGCMLTWSTKFPTLKRLFGEAQAAWLVKESEQAVLEIDAFCKQHHIDAQLSLKGVYYTATNHVQAGSMQPVVDELSRLGVNSWRRCKEDELHANTGSPRHLEGFHSSVAASVQPALLARGLRRVALEMGIEIFENTPMTKLDFGQPATVSTPDAQIKAKQVVLALNAWMVEHFTQFKNSIVVVSSDMVITKPLGESLRKTGWQAGTSVLDSRIFVHYYRDTPDGRLMLGKGGNQFSFNNQVDVMFNKPTRYQNLLRKSFDKLFPSLKEAEFEYSWTGGSDRSTSGFPFFGKLNEQRNVFYGFGYSGNGVAQTRMGGKILSSMVLGLDNEWTRSGLAKGPLGHFPPEPFRWIGAMTVRNAVRRKEEAEDCGQKPFIWDKWLAKLAGPAGKADKLDLEHHHHHH	soluble
MAHTGRMFKIEAAEIVVARLPLKFRFETSFGVQTHKVVPLLILHGEGVQGVAEGTMEARPMYREETIAGALDLLRGTFLPAILGQTFANPEAVSDALGSYRGNRMARAMVEMAAWDLWARTLGVPLCTLLGGHKEQVEVGVSLGIQADEQATVDLVRRHVEQGYRRIKLKIKPGWDVQPVRATREAFPDIRLTVDANSAYTLADAGRLRQLDEYDLTYIEQPLAWDDLVDHAELARRIRTPLCLDESVASASDARKALALGAGGVINLKVARVGGHAESRRVHDVAQSFGAPVWCGGMLESGIGRAHNIHLSCLSNFRLPGDTSSASRYWERDLIQEPLEAVDGLMPVPQGPGTGVTLDREFLATVTEAQEEHRA	soluble
MAICILHYTNAQLARDWSFQQMCNFWGGEQTYHARKDGFKSLEGDKCTFNFPKASDNQKSAQQYCEDNVPYHINNAEASEYKTTCEAEATLICKSGWVQMFGRCYKITKTMMTRDKAEKHCKNQQDQTSTIAFMHREALPFRWNDYFTRVSRIWMDASEVVTNDLIYDVEGGNVLLAFDGYKYNLPNVAIARVSKDETAMVLCEYTPPMTKSESNYLLRRYGEIYYPPLVTSEAVYIRTTSSRIRNEEDKLADHKYCTEVMKPVFRGGRAQSASPTQGLHMPTQMRGINKSAPFKQNPTIKGEAVPFPLDNAIWRKGEPNESCDAATWSSAVVLSRRENEGLEVMSDARYAPIYCEQIVKGLSYTKCPDGFVEYYRKNEGKTWCHKYVWDDTANYDNAEQKCQQLGAHLSSFTSDEEFQFLNDMIAKSEQLPNTDYIEVLLGARRRKRCNDLSIVGRGGFSSDKESECSRRRVFEWLHDVAENPPNFLDAYWPSPYEPNHALVDEECLVMMSGKTNGGMVMEQGN	not soluble
MAIDFHLSASQKGTYQAARSLARNLLMPARQTYLQHPPNSPLRFQSTQPTYAAAVSAGILKGQISPAHGGTGGTLIESAILVEECYSVEPSAALTIFATGLGLTPINLAAGPQHAEFLAPFLSGEGSPLASLVFSEPGGVANALEKGAPGFQTTARLEGDEWVINGEKMWATNCAGWDFKGCDLACVVCRDATTPLEEGQDPENKVMIILVTRADLDRNGEGSFEVLRHVATPGHTSVSGPHVRYTNVRVPTKNVLCPAGQGAKVAFGAFDGSAVLVGAMGVGLMRAAFDAALKFAKEDNRGGAVPLLERQAFADLLSGVKIQTEAARALTWKAAHAMENGPGDYDARRELALAAKVFCSEAAVKACTDVINAVGISAYDLQRPFSDLLNTAVVLPIFDGGNVGIRRRHLQQLMLKPTYDAWSSTYGSFPGSHHHHHH	soluble
MAIDNIKAYVHLSDADIEEIGRRLDQIKAEVTQSLGARDVAYIKRLIRTQRSLEAAGRFALLFAGNKKCWWLGTGLLSTAKILENLEIGHNVLHGQWDWMNDPEIHSTTWEWDIVCPSSQWMHSHNFVHHTYTNVLGMDNDVGYGILRVTRDRKWTPLHAFQPAVNTVLAAMFQWAVGYYDVELGRYLTKRADWNDTKDKFWETTNKAGRQLARDYVFYPALARKAFPQAVKANAVANLVRSVWAYSVIFCGHFPDEAETFTKEQFKNEDHNQWYLRQMLGSANFYGGKLLTIMSGNLNYQIEHHLFPDMPSNRLAEVGEKVRALCDEYDLPYNVDSFPAQLFKVQKTLLKLTLPNKYLVASPDNAPEVRSNRAFSQNPEIENQLAGGSNGSGLRTGLKLLKRLRPSIKDAILIYSGRKPRGNQQR	not soluble
MAIGFICSSPDAELFSEKSRMSSSVLLGCLLCCMDWSAAVPGKTEPFRKLFDAIMIKKLKSCSAAYPSDLDEGSMCDMADASPTSLELGLSKLDKES	not soluble
MAIIASNNSWDLYQLAVVILNYRTPQLVVDCLASLVSQIDPQTQQVIVVDNASGDDSVEEIEKAIANNNWQDWVRLLPSDVNGGFSAGNNLGIQAIRAENYLLLNSDTIVRPGAIQTLLVALEQYPEAGLFSPRLEWPDGTPQISCFRDHSPLSEMIDGARTSVITKLLQPFDVPIPVTEQSFEPQWTSFACVLIRRSVVEQIGLMDDGYFMYYDDIDYCRRARQAAWKIRYIPQASVVHLRGGSGSVKSDVASRKRPRPYLYASRSRYFAKFYGPLGLALANLGWLGGWGIAALREILGQKEPHTCDRQWQDIWFQWRQPLKPYRPELEHHHHHH	soluble
MAIKNAFYAQSGGVTAVINASACGVIQTARKHPDQIGKVYAGRNGIIGALKEELIDTSLESDDAIQALIHTPGGAFGSCRYKLKNISENQREYERLIEVFRAHDIGYFFYNGGGDSQDTAYKVSQLADRMGYPITCIGVPKTVDNDLPFTDCCPGFGSVAKYIATSTLEASLDIKSMCETSTKVFILEVMGRHAGWIAAAGGLAGQSEGEPPHVILFPEIPFNREKFLERVDQCVRDYGYCVVVASEGAQYEDGRFVADAGAKDAFGHTQLGGVAPALANMVKQALGHKYHWAVADYLQRAARHIASATDVEQAYAVGKAAVEMALAGKQALMPTIVRDQAKPYRWSIGEANLSEVANQEKKMPIHYITDNGFGITQDCRDYLQPLIAGESFPPFDDGLPRVAKLKNQLVEKKLRTEFEL	soluble
MAINLQTLFKKKREGKKITMVSTYDYWSAKLCDEVGIDCILVGDSLGTVVKGEGDTLSVTLEEIIYHTKCVMRGVKNAFVIADMPFMSYQVSMEKAVENCGRVIKETKAKAVKLEGGEEIAELVYKLTRIGIPVVGHVGFTPQHINVFGKPKVVGKKKEEEEKLRRDFRALEEAGAFMIVLESVPTHLAKELWKGSNSIVIGIGAGKYVDGQVLVFHDIVGLFEDFKPKFVRRYLEGAKLVKEALKNFKIDVEGGNFPSEEESYG	not soluble
MAIPYVVRKKADLTSGERKELWYGVPSKIQDRGGVQNKELAQVVELRGGFHRGQVEGILVEVADAIRYLLSMGQSVTIDGLGTFQTALTSPGFERPEQVTPGQVSVSRVYFVANSALRDRMKKTKCMRIPFKYYMSESMLTKEMKKADQEQEQTEE	not soluble
MAIQHPDIQPAVNHSVQVAIAGAGPVGLMMANYLGQMGIDVLVVEKLDKLIDYPRAIGIDDEALRTMQSVGLVDNVLPHTTPWHAMRFLTPKGRCFADIQPMTDEFGWPRRNAFIQPQVDAVMLEGVSRFPNVRCLFSRELEAFSQQDDEVTLHLKTAEGLREIVKAQWLVACDGGASFVRRTLNVPFEGKTAPNQWIVVDIANDPLSTPHIYLCCDPVRPYVSAALPHAVRRFEFMVMPGETEEQLREPQNMRKLLSKVLPNPDNVELIRQRVYTHNARLAQRFRIDRVLLAGDAAHIMPVWQGQGYNSGMRDAFNLAWKLALVIQGKARDALLDTYQQERRDHAKAMIDLSVTAGNVLAPPKRWQGTLRDGVSWLLNYLPPVKRYFLEMRFKPMPQYYGGALVREGEAKHSPVGKMFIQPKVTLENGDVTLLDNAIGANFAVIGWGCNPLWGMSDEQIQQWRALSTRFIQVVPEVQIHTAQDNHDGVLRVGDTQGRLRSWFAQHNASLVVMRPDRFVAATAIPQTLGKTLNKLASVMTLTRPDADVSVEKVA	not soluble
MAIRIAINGFGRIGRSVLRALYESGRRAEISVVAINELASAEGMAHLLKYDSSHGRFAWDVRQECDSLYVGDDIIRLIHQSEIEQLPWSELGIDVVLDCSGVYGSREDGEAHVASGAKKVLFAHPGGHDLDATVVYGVNHQDLRAEHRIVSNASCTTNCIIPIIQLLDIAYGIESGTVTTIHSSMNDQPVIDAYHQDLRRTRAASQSIIPVDTKLAAGITRIFPKFCDRFEAISVRVPTINVTAIDLSVSVTHPVGVAEVNQLLQKAARGAFRGIVDYTELPLVSMDFNHDPHSAIVDGTQTRVSGQHLIKTLVWCDNEWGFANRMLDTTLAMAKSGF	not soluble
MAIRRLRTIFVSLLLGLAASATQAADRSDRNVTAKLEGRFEWDFALFDNDTRGTPNRSNNEIRRFWLDVTGKVFAFDYTIEGNFTNLQDKFKGKSIEMGDVYLRHDFGNTGTLTLGQFKQHFSLDDRTSPDYGQFLERSGGANTLAPEYHKGVSWKATHQNTTWWVSAYSLDSISLSNVNGRGLGGRGTWSPDTPEGDVLHLGLSLAHQRYDHPGSDGMTALSIRPLPAGHLSDNSGITLAHFANGRDTKVNRWALEYAQVRGPLSWQSEYIGGAFNDGMQRATVQSAYGFVSWFVTGESRTYDRKTGRFTRIKTLHNPRGALELALRYDRMWGNQHHNNQPNFLNASTASCTLGVNWYIKPNLRLMLNLIDSRNRDRLAGTVLDHTRALTGRLHYDF	not soluble
MAIYTVKALITDPIDEILIKTLREKGIQVDYMPEISKEELLNIIGNYDIIVVRSRTKVTKDVIEKGKKLKIIARAGIGLDNIDTEEAEKRNIKVVYAPGASTDSAVELTIGLMIAAARKMYTSMALAKSGIFKKIEGLELAGKTIGIVGFGRIGTKVGIIANAMGMKVLAYDILDIREKAEKINAKAVSLEELLKNSDVISLHVTVSKDAKPIIDYPQFELMKDNVIIVNTSRAVAVNGKALLDYIKKGKVYAYATDVFWNEPPKEEWELELLKHERVIVTTHIGAQTKEAQKRVAEMTTQNLLNAMKELGMI	soluble
MAKALEQPFDVANIPGPKMATLLEKGKPVANMIKKAKRPLLIVGPDMTDEMFERVKKFVEKDITVVATGSAITRFIDAGLGEKVNYAVLHELTQFLLDPDWKGFDGQGNYDLVLMLGSIYYHGSQMLAAIKNFAPHIRALAIDRYYHPNADMSFGNLWKKEEDYLKLLDEILAEL	soluble
MAKATYACVECGYRTPKPLGRCPSCGSWESFQEVAPAPASRRAKPSPLPLLALSQVDEAEERRFSSGLSEVDRVLGGGFVTGEVVLLGGEPGVGKSTLLLEMAKRMPQRVYYVAGEESPAQIKLRAQRLGVKDLLLVRETRLEPLLALLEEDPPEVLFVDSVQTLEAGGSPGSLVAVREATSALVRFAKERGVAVVLVGHVTKEGVVAGPKSVEHAVDATLYLETAGPYRVLRSAKNRFGPVGEIGVFRMEEAGLLEVENPSEAFLKERPLGVPGSAVALALAGERALALEVQALAAKTPFPAPRRVVQGLDGRRVDVVLAVLERRLGLPLANLDVYVNLAGGLKVQDPGLDLAVALAVYSAVVGRPLPVDLALVGEVGLAGEVRRVAVLERRLREGERAGFGRFLHPGNLKRLQEAVEAYLA	soluble
